# Results: IntAct's records for PubMed 21944579
# B1: Low-density lipoprotein receptor-related protein 6 (Homo sapiens), O75581 (parent)
# chain: MGAVLRSLLACSFCVLLRAAPLLLYANRRDLRLVDATNGKENATIVVGGLEDAAAVDFVFSHGLIYWSDVSEEAIKRTEFNKTESVQNVVVSGLLSPDGLACDWLGEKLYWTDSETNRIEVSNLDGSLRKVLFWQELDQPRAIALDPSSGFMYWTDWGEVPKIERAGMDGSSRFIIINSEIYWPNGLTLDYEEQKLYWADAKLNFIHKSNLDGTNRQAVVKGSLPHPFALTLFEDILYWTDWSTHSILACNKYTGEGLREIHSDIFSPMDIHAFSQQRQPNATNPCGIDNGGCSHLCLMSPVKPFYQCACPTGVKLLENGKTCKDGATELLLLARRTDLRRISLDTPDFTDIVLQLEDIRHAIAIDYDPVEGYIYWTDDEVRAIRRSFIDGSGSQFVVTAQIAHPDGIAVDWVARNLYWTDTGTDRIEVTRLNGTMRKILISEDLEEPRAIVLDPMVGYMYWTDWGEIPKIERAALDGSDRVVLVNTSLGWPNGLALDYDEGKIYWGDAKTDKIEVMNTDGTGRRVLVEDKIPHIFGFTLLGDYVYWTDWQRRSIERVHKRSAEREVIIDQLPDLMGLKATNVHRVIGSNPCAEENGGCSHLCLYRPQGLRCACPIGFELISDMKTCIVPEAFLLFSRRADIRRISLETNNNNVAIPLTGVKEASALDFDVTDNRIYWTDISLKTISRAFMNGSALEHVVEFGLDYPEGMAVDWLGKNLYWADTGTNRIEVSKLDGQHRQVLVWKDLDSPRALALDPAEGFMYWTEWGGKPKIDRAAMDGSERTTLVPNVGRANGLTIDYAKRRLYWTDLDTNLIESSNMLGLNREVIADDLPHPFGLTQYQDYIYWTDWSRRSIERANKTSGQNRTIIQGHLDYVMDILVFHSSRQSGWNECASSNGHCSHLCLAVPVGGFVCGCPAHYSLNADNRTCSAPTTFLLFSQKSAINRMVIDEQQSPDIILPIHSLRNVRAIDYDPLDKQLYWIDSRQNMIRKAQEDGSQGFTVVVSSVPSQNLEIQPYDLSIDIYSRYIYWTCEATNVINVTRLDGRSVGVVLKGEQDRPRAVVVNPEKGYMYFTNLQERSPKIERAALDGTEREVLFFSGLSKPIALALDSRLGKLFWADSDLRRIESSDLSGANRIVLEDSNILQPVGLTVFENWLYWIDKQQQMIEKIDMTGREGRTKVQARIAQLSDIHAVKELNLQEYRQHPCAQDNGGCSHICLVKGDGTTRCSCPMHLVLLQDELSCGEPPTCSPQQFTCFTGEIDCIPVAWRCDGFTECEDHSDELNCPVCSESQFQCASGQCIDGALRCNGDANCQDKSDEKNCEVLCLIDQFRCANGQCIGKHKKCDHNVDCSDKSDELDCYPTEEPAPQATNTVGSVIGVIVTIFVSGTVYFICQRMLCPRMKGDGETMTNDYVVHGPASVPLGYVPHPSSLSGSLPGMSRGKSMISSLSIMGGSSGPPYDRAHVTGASSSSSSSTKGTYFPAILNPPPSPATERSHYTMEFGYSSNSPSTHRSYSYRPYSYRHFAPPTTPCSTDVCDSDYAPSRRMTSVATAKGYTSDLNYDSEPVPPPPTPRSQYLSAEENYESCPPSPYTERSYSHHLYPPPPSPCTDSS
# partner: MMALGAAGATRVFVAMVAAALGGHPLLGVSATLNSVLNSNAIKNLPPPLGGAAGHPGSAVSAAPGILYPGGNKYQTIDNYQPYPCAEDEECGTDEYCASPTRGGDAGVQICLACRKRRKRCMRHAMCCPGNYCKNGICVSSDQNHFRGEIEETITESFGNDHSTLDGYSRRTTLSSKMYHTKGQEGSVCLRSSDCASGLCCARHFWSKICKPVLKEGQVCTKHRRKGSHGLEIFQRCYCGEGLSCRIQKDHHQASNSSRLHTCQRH
# B2: Dickkopf-related protein 1 (Homo sapiens), O94907 (parent)
# chain: B1 partner
# B3: Sclerostin (Homo sapiens), Q9BQB4 (parent)
# chain: MQLPLALCLVCLLVHTAFRVVEGQGWQAFKNDATEIIPELGEYPEPPPELENNKTMNRAENGGRPPHHPFETKDVSEYSCRELHFTRYVTDGPCRSAKPVTELVCSGQCGPARLLPNAIGRGKWWRPSGPDFRCIPDRYRAQRVQLLCPGGEAPRARKVRLVASCKCKRLTRFHNQSELKDFGTEAARPQKGRKPRPRARSAKANQAELENAY
# B4: Low-density lipoprotein receptor-related protein 6 (Homo sapiens), O75581 (parent)
# chain: B1 chain
# Variants of: B1
# Conditions: with dkk1_human DKK1, O94907
row,Variant,effect of a mutation on the interaction
1,D98Y,disrupting interaction
2,N185S,disrupting interaction

# The remaining lines, values ahead:
row,effect of a mutation on the interaction,Variant
1,disrupting interaction,R141M
2,disrupting interaction,A201V
3,disrupting interaction,A229T

# Variants of: B2
# Conditions: with lrp6_human LRP6, O75581
row,effect of a mutation on the interaction,Variant
1,disrupting interaction,H204E
2,disrupting interaction,K211E

# Variants of: B2
# Conditions: with lrp6_human LRP6, O75581
# Remark: another data set of the same source
row,effect of a mutation on the interaction,Variant
1,decreasing interaction,N40A
2,disrupting interaction,I42E

# Variants of: B3
# Conditions: with lrp6_human LRP6, O75581
row,effect of a mutation on the interaction,Variant
1,decreasing interaction,N117A
2,decreasing interaction,I119E

# Variants of: B4
# Conditions: with sost_human SOST
row,Variant,effect of a mutation on the interaction
1,N185S,disrupting interaction
2,A201V,disrupting interaction
3,D98Y,disrupting interaction

# Second part, the variant after the results:
row,effect of a mutation on the interaction,Variant
1,disrupting interaction,R141M
2,disrupting interaction,A229T
